“Also recorded” adds a separate entry of the source.
Legend:
[1] = Stability in blood (hydrolysis, PAPTPL release); format: in vitro ADME; settings: fresh heparinized C57BL mouse blood, 37 °C, 5 µM from 5 mM DMSO stock, HPLC-UV, % PAPTPL released relative to amount spiked, mean, n = 5 (An2-PAPTP) and 4 (TAT-PAPTP)
Method: C57BL mice were anesthetized and blood was withdrawn from the jugular vein and heparinized. Blood samples (1 mL) were spiked with compound (5 µM; dilution from a 5 mM stock solution in DMSO) and incubated at 37 °C for 4 h (the maximum period allowed by blood stability). Aliquots were taken after 10 min, 30 min, 1 h, 2 h, and 4 h before HPLC-UV analysis.
Each aliquot was treated as described above (Section 4.7.1). Compound stability in blood was expressed as % of PAPTPL released relative to the amount of An2-PAPTP and TAT-PAPTP spiked in the sample at time 0.

[2] = Preliminary brain levels after intraperitoneal An2-PAPTP; format: in vivo, mouse; settings: An2-PAPTP 5 µmol/kg bw i.p. in DMSO; sacrifice at 20 min or 1, 2, 4 h; four mice
Method: In preliminary tests An2-PAPTP was administered at 5 µmol/kg bw by the intraperitoneal (i.p.) route, using dimethylsulfoxide (DMSO) as the vehicle. […] Many brain-penetrating peptides bind to biomolecules such as proteins and cell structures such as membranes. Furthermore, the absence of a flowing bloodstream at the injection site may cause a poorly soluble molecule to remain confined in the vicinity of the point of delivery. […] Collectively, these preliminary results led to the adoption of the intravenous route. An2-PAPTP (5 µmoles/kg bw, in plasma) was thus administered by tail vein injection to mice.

[3] = Aqueous solubility determination; format: physicochemical
Method: For TAT-PAPTP and An2-PAPTP, three distinct suspensions were prepared by diluting 25 mM stock solutions in DMSO to 100 μM, in 0.9% NaCl saline or water (DMSO < 0.4%). The suspensions were sonicated 5 min and immediately analyzed. The suspensions were then centrifuged at 12,000× g, 18 °C, for 1 and 2 h, and the supernatants were analyzed by HPLC/UV at the end of each centrifugation. An additional analysis was performed after 24 h of standing. The chromatographic peak areas were used to determine the concentration of the compound in the supernatants, based on calibration curves built using solutions in DMSO.

[4] = Tissue distribution of An2-PAPTP and metabolites (liver, spleen, kidneys, heart) after i.v. injection; format: in vivo, mouse
Excerpt: The total amount of An2-PAPTP and its metabolites, summarized in Table 3, is comprehensive of all the species having the characteristic psoralenic UV spectrum obtained by the overall extraction procedure (i.e., from organic solvent extraction and basic hydrolysis of the remaining pellet), and represents and underestimation of the real concentration in the tissue (see Section 4.7.3). This is because no recovery yield correction was applied, since it was impossible to identify most of the species extracted, and because PAPTPL extracted after high-pH hydrolysis of the pellet could come either from An2-PAPTP or from metabolites. For quantification in HPLC analysis, all the psoralenic species were assumed to have the same molar extinction coefficient as PAPTPL, an assumption justified by the near-identity observed for all the available psoralen-containing molecules.
The liver, spleen, kidneys, heart obtained from untreated mice were weighed and homogenized with PBS pH 7.4 (1 vol) with a potter. The pre-established amount of PAPTPL was added into tissue homogenates or blood and, after thorough vortexing, 5 vol of acetone were added and the sample was sonicated for 2 min. Subsequently, 5 vol of ACN containing 0.1% TFA were added and the sample was sonicated for 5 min. The sample was then centrifuged at 12,000× g for 7 min at 4 °C and the supernatant was collected, concentrated with a Hetovac VR-1, and analyzed via HPLC-UV.
Brain and liver obtained from untreated mice were weighed and homogenized with PBS pH 7.4 (1 vol) with a potter. The pre-established amount of analyte was added into tissue homogenates and, after thorough vortexing, 5 vol of acetone were added and the sample was sonicated for 2 min. Subsequently, 5 vol of ACN containing 0.1% trifluoracetic acid (TFA) were added and the sample was sonicated for 5 min. The sample was then centrifuged at 12,000× g for 7 min at 4 °C and the supernatant was collected, concentrated with a Hetovac VR-1, and analyzed via HPLC-UV.
To quantify the amount of An2-PAPTP stuck in the tissue, the pellet remaining after the procedure described above was incubated with intermittent Vortexing at 60 °C for 3 h with PBS pH 12.5/ACN 1:1 and then centrifuged at 12,000× g for 7 min. HPLC-UV analysis of the supernatant, measuring PAPTPL hydrolyzed from the tissue, thus indirectly reflects the amount of An2-PAPTPL in the pellet (Scheme 3). Quantification was as described for PAPTPL.
A stock solution of the peptide-PAPTP conjugates was prepared in DMSO. TAT-PAPTP was administered at 8 and 5 μmol/kg bw and An2-PAPTP only at 5 μmol/kg bw. The calculated quantity of drugs was diluted from the stock solution in saline or mouse plasma to a final volume of 200 μL.

[5] = An2-PAPTP 5 µmoles/kg bw i.v., all psoralenic species, 312 nm, no recovery correction, mean ± SEM, n = 5
[6] = An2-PAPTP i.v., found in one animal out of four
[7] = An2-PAPTP i.v., mean ± SEM, n = 4
[8] = An2-PAPTP i.v., mean ± SEM, n = 5
[9] = An2-PAPTP i.v., mean ± SEM, n = 6

CC[C@H](C)[C@H](NC(=O)Oc1ccc(CCCOc2ccc([P+](CCCc3ccc(OCCCCOc4c5ccoc5cc5oc(=O)ccc45)cc3)(c3ccccc3)c3ccccc3)cc2)cc1)C(=O)N[C@H](C(=O)N[C@@H](Cc1ccccc1)C(=O)N[C@@H](Cc1ccccc1)C(=O)N[C@@H](Cc1ccc(O)cc1)C(=O)NCC(=O)NCC(=O)N[C@@H](CO)C(=O)N[C@@H](CCCNC(=N)N)C(=O)NCC(=O)N[C@@H](CCCCN)C(=O)N[C@@H](CCCNC(=N)N)C(=O)N[C@@H](CC(N)=O)C(=O)N[C@@H](CC(N)=O)C(=O)N[C@@H](Cc1ccccc1)C(=O)N[C@@H](CCCCN)C(=O)N[C@H](C(=O)N[C@@H](CCC(=O)O)C(=O)N[C@@H](CCC(=O)O)C(=O)N[C@@H](Cc1ccc(O)cc1)C(=O)O)[C@@H](C)O)[C@@H](C)O [An2-PAPTP]
hydrolyzed in mouse blood over 4 h (PAPTPL released) [1]: about 60% | detection in brain after i.p. administration [2]: no An2-PAPTP or PAPTPL could be detected | solubility in 10 mM phosphate buffer ([3]; 10 mM phosphate buffer, supernatants after centrifugation, HPLC): precipitated | solubility in 0.9% NaCl saline ([3]; 0.9% NaCl saline, kinetic, 25 mM DMSO stock diluted to 100 μM (DMSO < 0.4%), sonicated 5 min, centrifuged 12,000 × g 18 °C 1 and 2 h, supernatant HPLC/UV, detection limit 0.1 µM): precipitated in saline; also recorded: insoluble in saline | solubility in water ([3]; water, kinetic, 25 mM DMSO stock diluted to 100 μM (DMSO < 0.4%), sonicated, centrifuged 12,000 × g 18 °C, supernatant HPLC/UV): above 100 μM | Heart Psoralenic Species (nmol/g Tissue), 15 min [4, 5]: 0.2 ± 0.1 nmol/g Tissue | Kidney Psoralenic Species (nmol/g Tissue), 15 min [4, 5]: 5 ± 4 nmol/g Tissue | Spleen Psoralenic Species (nmol/g Tissue), 15 min [4, 5]: 28 ± 9 nmol/g Tissue | Liver Psoralenic Species (nmol/g Tissue), 15 min ([4]; An2-PAPTP 5 µmoles/kg bw i.v., all species with psoralenic UV spectrum, 312 nm, no recovery correction, mean ± SEM, n = 5): 23 ± 3 nmol/g Tissue | degradation of the peptide chain by liver peptidases ([4]; An2-PAPTP 5 µmoles/kg bw i.v., liver, in vivo): degraded the peptide chain nearly completely in little more than one hour | Heart Psoralenic Species (% of Administered Dose), 30 min, single animal [4, 6]: 0.07 % of Administered Dose | Heart Psoralenic Species (nmol/g Tissue), 30 min, single animal [4, 6]: 0.36 nmol/g Tissue | Kidney Psoralenic Species (% of Administered Dose), 30 min [4, 7]: 0.32 ± 0.07 % of Administered Dose | Spleen Psoralenic Species (% of Administered Dose), 30 min [4, 7]: 0.27 ± 0.09 % of Administered Dose | Heart Psoralenic Species (% of Administered Dose), 15 min [4, 8]: 0.07 ± 0.01 % of Administered Dose | Kidney Psoralenic Species (% of Administered Dose), 15 min [4, 8]: 1.2 ± 0.8 % of Administered Dose | Spleen Psoralenic Species (% of Administered Dose), 15 min [4, 8]: 1.2 ± 0.3 % of Administered Dose | Kidney Psoralenic Species (% of Administered Dose), 60 min [4, 9]: 0.31 ± 0.03 % of Administered Dose | Spleen Psoralenic Species (% of Administered Dose), 60 min [4, 9]: 0.8 ± 0.2 % of Administered Dose | Heart Psoralenic Species (% of Administered Dose), 60 min ([4]; An2-PAPTP i.v., n = 6): 0 % of Administered Dose | Heart Psoralenic Species (nmol/g Tissue), 60 min ([4]; An2-PAPTP i.v., n = 6): 0 nmol/g Tissue | Liver Psoralenic Species (nmol/g Tissue), 30 min ([4]; as above, 30 min, n = 4): 17 ± 2 nmol/g Tissue | Liver Psoralenic Species (nmol/g Tissue), 60 min ([4]; as above, 60 min, n = 6): 11 ± 3 nmol/g Tissue | Kidney Psoralenic Species (nmol/g Tissue), 30 min ([4]; as above, n = 4): 1.3 ± 0.2 nmol/g Tissue | Spleen Psoralenic Species (nmol/g Tissue), 30 min ([4]; as above, n = 4): 4.3 ± 1.4 nmol/g Tissue | Kidney Psoralenic Species (nmol/g Tissue), 60 min ([4]; as above, n = 6): 1.2 ± 0.1 nmol/g Tissue | Spleen Psoralenic Species (nmol/g Tissue), 60 min ([4]; as above, n = 6): 11 ± 3 nmol/g Tissue

From paper PMC7914648 (Pharmaceuticals, 2021)
